Reference: patent US20160053277A1, “Compositions Having Dicamba Decarboxylase Activity and Methods of Use” (PIONEER HI-BRED INTERNATIONAL, INC., priority 2013, published 2016)

B1: 101 (protein, listed as Aquifex aeolicus)
chain: MAQKIALCITGASGVIYGIKLLQVLEELDFSVDLVISRNAKVVLKEEHSLTFEEVLKGLKNVRIHEENDFTSPLASGSRLVHYRGVYVVPCSTNTLSCIANGINKNLIHRVGEVALKERVPLVLLVREAPYNEIHLENMLKITRMGGVVVPASPAFYHKPQSIDDMINFVVGKLLDVLRIEHNLYKRWRG
B2: 104 (protein)
chain: MANILQEPIDFLKKEELKNIDLSQMSKKERYKIWKRIPKCELHCHLDLCFSADFFVSCIRKYNLQPNLSDEEVLDYYLFAKGGKSLGEFVEKAIKVADIFHDYEVIEDLAKHAVFNKYKEGVVLMEFRYSPTFVAFKYNLDIELIHQAIVKGIKEVVELLDHKIHVALMCIGDTGHEAANIKASADFCLKHKADFVGFDHGGHEVDLKEYKEIFDYVRESGVPLSVHAGEDVTLPNLNTLYSAIQVLKVERIGHGIRVAESQELIDMVKEKNILLEVCPISNVLLKNAKSMDTHPIRQLYDAGVKVSVNSDDPGMFLTNINDDYEELYTHLNFTLEDFMKMNEWALEKSFMDSNIKDKIKNLYF
modifications: Plasmodium Vivax
B3: 99 (protein, listed as Ralstonia solanacearum)
chain: MAIIDCHGHFTTAPTALEDWRKRQIANLATPALGPSPDDLKISDDALTEAIRANQLRLMQARGSDLTIFSPRASFMAHHIGDFHTSATWAAICNALCHRVSQLFPDHFVGAAMLPQSPGVDIRTCIPELARCIVDYGFVGVNLNPDPSGGHWTSPPLSDPYWFPLYEKLVEYDVPAMIHVSTSCNACFHTTGAHYLNADTTAFMQVLTSDLFRRFPTLKFVIPHGGGAVPYHWGRFRGLAQELKTPPLQEHLLHNVFFDTCVYHQPGIDLLTRVIPVDNILFASEMIGAVRGIDPETGHPFDDTRRYIDQAHTLSAEDRHKIYEGNARRVYPRLDARLKARGR
B4: 102 (protein, listed as Lactobacillus plantarum)
chain: MATKTFKTLDDFLGTHFIYTYDNGWEYEWYAKNDHTVDYRIHGGMVAGRWVTDQKADIVMLTEGIYKISWTEPTGTDVALDFMPNEKKLHGTIFFPKWVEEHPEITVTYQNEHIDLMEQSREKYATYPKLVVPEFANITYMGDAGQNNEDVISEAPYKEMPNDIRNGKYFDQNYHRLNK
B5: 7 (protein, listed as Legionella pneumophila)
chain: MAIVDFETHFITEACIDYLTQRQEVPKLVPELNGAYTMCFTPDVSLFHTSALMEELLSLNEQRLAIMDQAGVTIQVLSLTTINGIDSCPGDENKSTALAREVNDQLYSAIQRHPERFKGFASISPYDVKEGVKELERAISQLGFVGWLTHSNFGEDNYLDDKTYWPLLEAAEGLNIPIYLHPNVPIMREFGKYGFALGGSALGFEFDTALCLMRMILGGVFDAFPKLKIMLGHLGETMPFLMERLDHLYRIPDLKAYRPSIQRIPSEVLRQNVYITTSGRFFVPALRYVLEVMGEDRVLFASDYPMESLLDATRFIQDSDLSNQTKQKIFSINAKNLNLI
B6: 106 (protein, listed as Pyrococcus horikoshii)
chain: MAGMKFIKNLHVSKLVIDSMKALINGTIYTSFNPLKKVSGLVISHGKVIYAGDSEVAKKIVELSGGEIVDLKGKYVMPAFFDSHLHLDELGMSLEMVDLRGAKSIEELIQRLKRGKGRIIFGFGWDQDELGEWPTRKELNAIDKPVFIYRKCFHVAVANDKMLELLNLTPSKDFDEDTGIIKEKSLEEARKVINERVLTVEDYVYYIKRAQEHLLDLGVKSVSFMSVNEKALRALFYLEREGKLSINVFAYVTPEVLDKLESIGLGRFQGNRLTIAGVKLFTDGSLGARTALLSKPYSDDPSTSGQLVMEREELIRITEKARSLGLDVAIHAIGDKALDVALDVFETTGFPGRIEHASLVRDDQLERVKNLKVRLSVQPHFIISDWWIVERVGEERVKWVYRFKDLMKVAELGFSTDSPIEPADPWLTVDAAVNRGKGKVKLYELTKDQALDIKDALHSYTYGSARVSLASDIGKLEPGFKAEYIILDRDPLVVK
B7: 103 (protein)
chain: MAMEIPTEEIKFLKKEDVQNIDLNGMSKKERYEIWRRIPKVELHCHLDLTFSAEFFLKWARKYNLQPNMSDDEILDHYLFTKEGKSLAEFIRKAISVSDLYRDYDFIEDLAKWAVIEKYKEGVVLMEFRYSPTFVSSSYGLDVELIHKAFIKGIKNATELLNNKIHVALICISDTGHAAASIKHSGDFAIKHKHDFVGFDHGGREIDLKDHKDVYHSVRDHGLHLTVHAGEDATLPNLNTLYTAINILNVERIGHGIRVSESDELIELVKKKDILLEVCPISNLLLNNVKSMDTHPIRKLYDAGVKVSVNSDDPGMFLSNINDNYEKLYIHLNFTLEEFMIMNNWAFEKSFVSDDVKSELKALYF
modifications: Plasmodium yoelii yoelii
B8: 105 (protein)
chain: MAIDFHVHLDLYPDPVAVARACEERQLTVLSVTTTPAAWRGTLALAAGRPHVWTALGFHPEVVSERAADLPWFDRYLPETRFVGEVGLDGSPSLRGTWTQQFAVFQHILRRCEDHGGRILSIHSRRAESEVLNCLEANPRSGTPILHWYSGSVTELRRAISLGCWFSVGPTMVRTQKGAALIRSMPRDRVLTETDGPFLELDGQAALPWDVKSVVEGLSKIWQIPASEVERIVKENVSRLLGTVR
modifications: Deinococcus radiodurans
B9: 107 (protein, listed as Rhodopseudomonas palustris)
chain: MAIIDIHGHYTTAPKALEDWRNRQIAGIKDPSVMPKVSELKISDDELQASIIENQLKKMQERGSDLTVFSPRASFMAHHIGDFNVSSTWAAICNELCYRVSQLFPDNFIGAAMLPQSPGVDPKTCIPELEKCVKEYGFVAINLNPDPSGGHWTSPPLTDRIWYPIYEKMVELEIPAMIHVSTSCNTCFHTTGAHYLNADTTAFMQCVAGDLFKDFPELKFVIPHGGGAVPYHWGRFRGLAQEMKKPLLEDHVLNNIFFDTCVYHQPGIDLLNTVIPVDNVLFASEMIGAVRGIDPRTGFYYDDTKRYIEASTILTPEEKQQIYEGNARRVYPRLDAALKAKGK
B10: 98 (protein)
chain: MAIIDCHGHYTTAPAAHDAFRKAQIAHHDDPQQPAPQYPHISDDALRESIEQHQLRLLRERGADMTIFSPRASTMAHHIGNEAVSQVWTQRCNDLIARVVQLYPHTFIGVCQLPQSPGVPISHSIAELERCVNELGFVGCNLNPDPSGGHWNGVPLTDRAWYPFFEKMVELDVPAMVHVSGSCNANFHATGAHYLNADTTAFMQFLEGDLFRDFPSLRFIIPHGGGAVPYHWGRFRGLADMLGKPPLATHVMRNVFFDTCVYHQPGIDLLFEVIDIDNILFGSEMVGAVRGIDPQTGHYFDDTKRYIDALTISDADKRKVFEGNARRVYPRLDAQLRARGL
modifications: Xanthomonas campestris pv.

experiment: 14C assay with IPTG-induced recombinant E. coli cells: 14CO2 captured from [14C]-carboxyl-labeled dicamba; settings: dicamba decarboxylation activity of the protein of the given SEQ ID NO; High / Low / No

Row | Molecule | Enzymatic Detection level
1 | B1 | No
2 | B2 | No
3 | B3 | No
4 | B4 | No
5 | B5 | No
6 | B6 | No
7 | B7 | No
8 | B8 | No
9 | B9 | No
10 | B10 | No

same assay, conditions: induced recombinant E. coli cells, [14C]-carboxyl-labeled dicamba, 14CO2 capture

Row | Molecule | Dicamba Decarboxylase Activity
11 | B1 | No
12 | B2 | No
13 | B3 | No
14 | B4 | No
15 | B5 | No
16 | B6 | No
17 | B7 | No
18 | B8 | No
19 | B9 | No
20 | B10 | No

experiment: Saturation mutagenesis of SEQ ID NO:109: dicamba decarboxylation activity of point mutants (carbon dioxide released); settings: decarboxylation activity (carbon dioxide released) of point mutant compared with unmutated backbone protein; backbone SEQ ID NO: 109

Row | Molecule | Fold Activity
21 | B1 | 1.8
22 | B2 | 2.1
23 | B3 | 1.7
24 | B4 | 2.6
25 | B5 | 1.3
26 | B6 | 0.8
27 | B7 | 1.7
28 | B8 | 0.9
29 | B9 | 1.7
30 | B10 | 2.3
